Test results taken from patent publication US20140171373.

Key:
[1] = molecular target: T1, z-VAD-fmk (benzyloxycarbonyl-Val-Ala-Asp-fluoromethylketone)
T1 chain: VAD

[2] = molecular target: human wild-type tau (tauWT), full-length, P10636
[3] = molecular target: human tauP301L, full-length (from Tg4510 / rTg4510 mouse brain), P10636
Sequence of human tauP301L, full-length (from Tg4510 / rTg4510 mouse brain), P10636 (P10636 whole entry, looked up): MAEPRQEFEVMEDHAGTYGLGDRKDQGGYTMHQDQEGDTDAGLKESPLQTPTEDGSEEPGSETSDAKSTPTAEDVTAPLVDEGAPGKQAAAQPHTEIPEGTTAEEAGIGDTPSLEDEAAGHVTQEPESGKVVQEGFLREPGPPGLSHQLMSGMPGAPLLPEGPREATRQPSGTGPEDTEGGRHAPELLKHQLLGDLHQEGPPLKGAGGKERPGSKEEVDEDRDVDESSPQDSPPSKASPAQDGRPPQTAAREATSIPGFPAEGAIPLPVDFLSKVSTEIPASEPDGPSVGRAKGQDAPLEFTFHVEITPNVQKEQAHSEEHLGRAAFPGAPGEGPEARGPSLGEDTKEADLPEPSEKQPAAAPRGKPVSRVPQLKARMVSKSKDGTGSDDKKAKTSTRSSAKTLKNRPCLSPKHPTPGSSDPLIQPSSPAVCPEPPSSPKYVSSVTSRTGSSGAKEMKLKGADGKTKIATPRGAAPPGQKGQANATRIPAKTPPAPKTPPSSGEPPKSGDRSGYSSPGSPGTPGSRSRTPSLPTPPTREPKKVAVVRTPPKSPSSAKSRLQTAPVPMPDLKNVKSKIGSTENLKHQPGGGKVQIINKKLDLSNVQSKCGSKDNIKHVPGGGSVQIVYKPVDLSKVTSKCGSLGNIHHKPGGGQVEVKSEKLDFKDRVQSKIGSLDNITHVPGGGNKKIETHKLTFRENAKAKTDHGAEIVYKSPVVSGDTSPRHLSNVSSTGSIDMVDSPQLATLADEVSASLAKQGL

Sequence of human wild-type tau (tauWT), full-length, P10636 (P10636 other isoform, or with tags, fused parts or gaps): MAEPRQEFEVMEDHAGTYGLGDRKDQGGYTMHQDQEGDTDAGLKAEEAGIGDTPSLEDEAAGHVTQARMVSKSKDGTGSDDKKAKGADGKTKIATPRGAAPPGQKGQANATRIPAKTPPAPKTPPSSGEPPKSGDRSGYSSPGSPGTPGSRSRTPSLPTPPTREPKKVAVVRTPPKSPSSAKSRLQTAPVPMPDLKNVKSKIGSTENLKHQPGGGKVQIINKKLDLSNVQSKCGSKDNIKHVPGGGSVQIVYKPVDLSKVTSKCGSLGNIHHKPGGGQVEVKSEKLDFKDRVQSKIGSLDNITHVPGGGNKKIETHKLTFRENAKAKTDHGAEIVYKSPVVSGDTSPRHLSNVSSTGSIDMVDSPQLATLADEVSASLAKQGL
Sequence of tauD314G, P10636 (P10636 whole entry, looked up): as the sequence (P10636 whole entry, looked up) above
Sequence of tauD314E, P10636 (P10636 whole entry, looked up): as above

B1: caspase-2 (protein)
chain 1: GPVCLQVKPCTPEFYQTHFQLAYRLQSRPRGLALVLSNVHFTGEKELEFRSGGDVDHSTLVTLFKLLGYDVHVLCDQTAQEMQEKLQNFAQLPAHRVTDSCIVALLSHGVEGAIYGVDGKLLQLQEVFQLFDNANCPSLQNKPKMFFIQACRGDET
chain 2: GKNHAGSPGCEESDAGKEKLPKMRLPTRSDMICGYACLKGTAAMRNTKRGSWYIEALAQVFSERACDMHVADMLVKVNALIKDREGYAPGTEFHRCKEMSEYCSTLCRHLYLFPGHPPT
35 kDa fragment after incubation with recombinant caspase-2 (tauD314E, P10636): generated a 35 kDa fragment only in the wild-type tau reaction (tauD314E: none) | cleavage of tau by the caspase, Tau-13 immunoblot [1]: 50 µM z-VAD-fmk ... (+inhibitor), a general caspase inhibitor, blocked all cleavage | cleavage of the FITC peptide substrate, LabChip [1]: Caspase inhibitor blocks caspase-2-mediated cleavage of Asp314 peptide substrate | 35 kDa fragment after incubation with recombinant caspase-2 [2]: generated a 35 kDa fragment only in the wild-type tau reaction that comigrates with tau truncation mutant ΔC314 | 35 kDa fragment on Tau-13 immunoblot after incubation with the caspase [2]: a 35 kDa fragment generated by co-incubating caspase-2 with full-length tau proteins purified from ... (B) brain lysates of rTg21221 mice expressing human wild-type tau (tauWT) ... or (C) synthetic human tauWT | 35 kDa fragment on Tau-13 immunoblot after incubation with the caspase [3]: a 35 kDa fragment generated by co-incubating caspase-2 with full-length tau proteins purified from (A) brain lysates of Tg4510 mice expressing human tauP301L | 35 kDa fragment after incubation with recombinant caspase-2 (tauD314G, P10636): generated a 35 kDa fragment only in the wild-type tau reaction (tauD314G: none)
